Laboratory results taken from US20200123254A1 (LENTIGEN TECHNOLOGY, published 2020).
Changes are numbered by the printed parent chain.

T1: CD19-Fc peptide (R&D, Minneapolis, Minn.) (UniProt P15391 20-291)
T1 construct: Bought reagent; also called recombinant CD19-Fc peptide; not shown: Fc part; bought reagent, detected with anti-human Fc F(ab')2-AF647
T1 sequence (looked up): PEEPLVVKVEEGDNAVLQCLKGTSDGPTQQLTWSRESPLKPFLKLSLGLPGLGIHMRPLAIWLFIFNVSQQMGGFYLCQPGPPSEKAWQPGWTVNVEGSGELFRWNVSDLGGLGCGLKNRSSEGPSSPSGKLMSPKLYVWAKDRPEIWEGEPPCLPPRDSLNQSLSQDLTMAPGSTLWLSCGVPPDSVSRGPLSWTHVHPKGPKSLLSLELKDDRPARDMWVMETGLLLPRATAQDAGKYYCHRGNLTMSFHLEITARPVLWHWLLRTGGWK

B1: LTG2068 (LP-M19217-23-CD8 TM-41BB-CD3 zeta) CAR (other)
chain: EVQLVQSGAEVKKPGASVKVSCKASGYTFTGYYMHWVRQAPGQGLEWIGLINPSGGSTSYEQKFQGRVAMTRDTSTSTVYMELSSLRSEDTAVYYCARSDRGITATDAFDIWGQGTMVTVSSGGGGSGGGGSGGGGSQSVLTQPPSVSVAPGQTAKITCGGSDIGDKNVHWYQQKPGQAPVLVVYDDYDRPSGIPERFSGSNSGDAATLTISTVEVGDEADYFCQVWDGIGDPYWVFGGGTQLTVLGAAATTTPAPRPPTPAPTIASQPLSLRPEACRPAAGGAVHTRGLDFACDIYIWAPLAGTCGVLLLSLVITLYCKRGRKKLLYIFKQPFMRPVQTTQEEDGCSCRFPEEEEGGCELRVKFSRSADAPAYQQGQNQLYNELNLGRREEYDVLDKRRGRDPEMGGKPRRKNPQEGLYNELQKDKMAEAYSEIGMKGERRRGKGHDGLYQGLSTATKDTYDALHMQALPPR
notes: Chimeric antigen receptor on the surface of transduced primary human T cells; also called ScFv5-CD8TM-4-1BB-CD3 zeta
B2: LTG2070 (LP-M19217-38-CD8 TM-41BB-CD3 zeta) CAR (other)
chain: EVQLVQSGAEVKRPGASVKVSCKASGYTFTSYYMHWVRQAPGRGLEWMGLINPSGGSTSYAQEFQGRVTMTRDMSTSTVYMELSSLRSEDTAVYYCARSDRGISATDAFDIWGQGTMVTVSSGGGGSGGGGSGGGGSQSVLTQPPSVSVAPGQMAKITCGGSDIGNKNVHWYQQKPGQAPVLVVYDDYNRPSGIPERFSGSNSGDAATLTISTVEVGDEADYFCQVWDGSGDPYWVFGGGTQLTDLGAAATTTPAPRPPTPAPTIASQPLSLRPEACRPAAGGAVHTRGLDFACDIYIWAPLAGTCGVLLLSLVITLYCKRGRKKLLYIFKQPFMRPVQTTQEEDGCSCRFPEEEEGGCELRVKFSRSADAPAYQQGQNQLYNELNLGRREEYDVLDKRRGRDPEMGGKPRRKNPQEGLYNELQKDKMAEAYSEIGMKGERRRGKGHDGLYQGLSTATKDTYDALHMQALPPR
notes: Chimeric antigen receptor on the surface of transduced primary human T cells; also called ScFv7-CD8TM-4-1BB-CD3 zeta
B3: LTG2069 (LP-M19217-29-CD8 TM-41BB-CD3 zeta) CAR (other)
chain: B1 chain with G31S, I48M, L50M, E61A, A69T, D166N, V169A, P195S, I230S, Y234F
notes: Chimeric antigen receptor on the surface of transduced primary human T cells; also called ScFv6-CD8TM-4-1BB-CD3 zeta
B4: LTG2071 (LP-M19217-40-CD8 TM-41BB-CD3 zeta) CAR (other)
chain: B1 chain with K13R, G31S, E46V, I48M, E61A, A69T, I157T, D166N, F223V, I230S
notes: Chimeric antigen receptor on the surface of transduced primary human T cells; also called ScFv8-CD8TM-4-1BB-CD3 zeta

Target: T1, CD19-Fc peptide (R&D, Minneapolis, …)
Assay: flow cytometry of CAR-transduced primary human T cells stained with CD19-Fc then anti Fc-AF647; untransduced T cells set as 0%
Protocol: FIG. 3 depicts anti-CD19 CAR surface expression in primary human T cells. CAR T cells redirected to CD19 tumor antigen via the use of ScFv domains (as listed in each panel) were generated by lentiviral transduction with CAR expression constructs. CART detection was performed by flow cytometry. T cells were washed twice in cold PBS-EDTA buffer and stained with CD19-Fc peptide followed by anti Fc-AF647 reagent. At least 20,000 cells were acquired for each analysis. Cells were gated based on forward scatter and side scatter, singlet discrimination, and 7AAD negativity so that only viable cells were analyzed. Data were acquired on MACSQuant 10 flow cytometer in the APC channel. UTD, un-transduced negative control cells. The marker in each panel identifies the CAR-expressing population, and are listed as percent of total transduced T cells analyzed.
For cell staining, half a million CAR T transduced cells were harvested from culture, washed two times in cold AutoMACS buffer supplemented with 0.5% bovine serum albumin (Miltenyi Biotec), and CAR surface expression detected by staining with CD19-Fc peptide (R&D, Minneapolis, Minn.) followed by anti Fc-AF647 conjugate (Jackson ImmunoResearch, West Grove, Pa.). Non-transduced cells were used as negative controls. Dead cells in all studies were excluded by 7AAD staining (BD Biosciences, San Jose, Calif.). Cells were washed twice and resuspended in 200 ul Staining Buffer before quantitative analysis by flow cytometry. Flow cytometric analysis was performed on a MACSQuant®10 Analyzer (Miltenyi Biotec), and data plots were generated using FlowJo software (Ashland, Oreg.).
T cells were activated on culture Day 0 with TransAct T cell reagent (active engagement of CD3 and CD28 antigens, Miltenyi Biotec, Inc.) in the presence of IL-2 as described in Materials and Methods. On culture Day 8-10, expression of anti-CD19 CARs on T cell surface was detected by CD19-Fc peptide followed by anti Fc-AF647 and analyzed by flow cytometry.

CAR expression level (percent of transduced T cells stained by CD19-Fc) [%] | Binder
54 | B1
47 | B2
68 | B3
21 | B4
